From patent US20160312212A1, “COW ANTIBODY SCAFFOLD POLYPEPTIDE METHOD AND COMPOSITION” (Roche Sequencing Solutions, Inc., priority 2015, published 2016)

Target: Biotinylated Human Thrombin (human) (UniProt P00734)
Assay: mRNA display selection on biotinylated human thrombin, round 2; NGS read frequency

counts: 86 counts
percentage (%): 0.0052%
Substance: mRNA-displayed cow antibody scaffold polypeptide with cassette RTKIK*NGL* (designed binder)
